B1: Ras-related protein Rab-8A (Canis familiaris (dog)), P61007 (parent)
chain: MAKTYDYLFKLLLIGDSGVGKTCVLFRFSEDAFNSTFISTIGIDFKIRTIELDGKRIKLQIWDTAGQERFRTITTAYYRGAMGIMLVYDITNEKSFDNIRNWIRNIEEHASADVEKMILGNKCDVNDKRQVSKERGEKLALDYGIKFMETSAKANINVENAFFTLARDIKAKMDKKLEGNSPQGSNQGVKITPDQQKRSSFFRCVLL
partner: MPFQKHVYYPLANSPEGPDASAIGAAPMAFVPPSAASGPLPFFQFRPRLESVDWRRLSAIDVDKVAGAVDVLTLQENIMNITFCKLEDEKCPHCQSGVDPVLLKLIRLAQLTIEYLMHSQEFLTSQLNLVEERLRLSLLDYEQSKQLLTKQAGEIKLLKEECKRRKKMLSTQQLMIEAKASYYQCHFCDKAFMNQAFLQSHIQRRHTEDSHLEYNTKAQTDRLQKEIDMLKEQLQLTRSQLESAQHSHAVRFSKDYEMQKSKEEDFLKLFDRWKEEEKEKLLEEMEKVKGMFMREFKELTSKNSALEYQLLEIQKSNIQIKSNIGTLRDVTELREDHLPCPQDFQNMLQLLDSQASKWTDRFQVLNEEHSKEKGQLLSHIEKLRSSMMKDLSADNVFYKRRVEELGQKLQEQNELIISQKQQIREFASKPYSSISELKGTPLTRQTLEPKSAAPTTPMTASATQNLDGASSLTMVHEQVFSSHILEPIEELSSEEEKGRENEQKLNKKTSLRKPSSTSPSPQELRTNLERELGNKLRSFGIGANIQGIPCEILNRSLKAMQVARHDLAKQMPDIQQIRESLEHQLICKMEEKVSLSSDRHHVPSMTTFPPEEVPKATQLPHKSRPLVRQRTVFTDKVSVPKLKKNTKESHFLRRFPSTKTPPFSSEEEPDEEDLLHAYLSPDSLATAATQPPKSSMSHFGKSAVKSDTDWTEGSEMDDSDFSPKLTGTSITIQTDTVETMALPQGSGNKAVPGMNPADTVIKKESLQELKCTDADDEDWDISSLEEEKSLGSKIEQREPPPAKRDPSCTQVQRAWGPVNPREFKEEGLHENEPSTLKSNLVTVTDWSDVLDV
B2: Ras-related protein Rab-8A (Canis familiaris (dog)), P61007 (parent)
chain: B1 chain
partner: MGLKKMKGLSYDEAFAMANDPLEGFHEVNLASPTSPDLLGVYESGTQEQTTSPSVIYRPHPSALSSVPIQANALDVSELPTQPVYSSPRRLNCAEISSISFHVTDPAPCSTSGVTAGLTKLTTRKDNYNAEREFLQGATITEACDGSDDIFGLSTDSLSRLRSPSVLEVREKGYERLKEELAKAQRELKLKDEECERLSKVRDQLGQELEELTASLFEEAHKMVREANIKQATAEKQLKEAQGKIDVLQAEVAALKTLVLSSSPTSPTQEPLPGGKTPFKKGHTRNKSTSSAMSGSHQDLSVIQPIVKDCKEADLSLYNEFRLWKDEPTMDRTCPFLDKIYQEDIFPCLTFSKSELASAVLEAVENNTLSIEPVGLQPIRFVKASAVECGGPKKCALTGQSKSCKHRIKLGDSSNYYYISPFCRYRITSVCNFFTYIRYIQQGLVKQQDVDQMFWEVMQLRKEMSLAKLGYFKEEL

Variants of: B1
Conditions: with Dzip1, Q8BMD2-1

Variant	effect of a mutation on the interaction
T22N	increasing interaction strength
Q67L	disrupting interaction strength

Variants of: B2
Conditions: with rab3i_human RAB3IP

Variant	effect of a mutation on the interaction
T22N	increasing interaction strength

Reference: IntAct's records for PubMed 25860027
